Assay results: publication PMC4544033, “Real-time analysis of epithelial-mesenchymal transition using fluorescent single-domain antibodies” (Scientific Reports, 2015)

Key:
purified vimentin-His6 = molecular target: T1, purified vimentin-His6 (Homo sapiens, UniProt P08670); assay: ELISA; solid-phase phage ELISA of 47 single clones after two cycles of biopanning against full-length vimentin; settings: one partner purified
T1 construct: vimentin, full length; Antigen of immunisation, biopanning and phage ELISA; details in the Supplementary methods; also called recombinant vimentin; full-length vimentin

[1] = molecular target: T2, vimentin rod domain fused to GFP (Homo sapiens, UniProt P08670); assay: pull-down; immobilized nanobodies incubated with lysates of HEK293T cells transfected with GFP fusions of vimentin or its domains; immunoblot with anti-GFP antibody; settings: one partner purified
T2 construct: vimentin central helical rod domain, aa 96-407; also called central helical rod domain (aa 96-407); source: HEK293T, transfected, in lysate

[2] = molecular target: endogenous vimentin (human cell lines) (human (endogenous in HeLa, HEK293T, A549, MDA-MB-231)) (UniProt P08670)
[3] = molecular target: T3, endogenous vimentin (MDCK cells) (Canis lupus familiaris, UniProt A0A8C0N8E3); assay: pull-down; nanobodies covalently coupled to agarose (NHS-Sepharose) beads incubated with soluble protein fractions of cell lines (HeLa, MDCK, A549 or HEK293T), 16 h at 4 °C; immunoblot with anti-vimentin IgG; settings: one partner purified
T3 construct: vimentin, endogenous in MDCK cells; source: endogenous, MDCK lysate; fixed MDCK cells

[4] = molecular target: T3, endogenous vimentin (MDCK cells); assay: immunostaining of cells or tissue; fixed (4% PFA), permeabilised MDCK, HeLa and MDA-MB-231 cells; ATTO488-labeled nanobodies 10 ug/ml in 3% BSA in PBS, 16 h at 4 °C; compared or co-stained with an anti-vimentin IgG; settings: one partner purified
GFP-labeled vimentin = molecular target: T4, GFP-labeled vimentin (Homo sapiens, UniProt P08670); assay: BLI; fiber optic sensors with immobilized VB3 and VB6; serial dilutions of the soluble protein fraction of HEK293T cells comprising GFP-VIM or GFP; settings: one partner purified
T4 construct: vimentin, full length; Expression constructs are described in the Supplementary methods; also called GFP-VIM; eGFP-Vimentin; source: HEK293T, transfected, in lysate (soluble protein fraction)
T4 sequence (P08670 whole entry): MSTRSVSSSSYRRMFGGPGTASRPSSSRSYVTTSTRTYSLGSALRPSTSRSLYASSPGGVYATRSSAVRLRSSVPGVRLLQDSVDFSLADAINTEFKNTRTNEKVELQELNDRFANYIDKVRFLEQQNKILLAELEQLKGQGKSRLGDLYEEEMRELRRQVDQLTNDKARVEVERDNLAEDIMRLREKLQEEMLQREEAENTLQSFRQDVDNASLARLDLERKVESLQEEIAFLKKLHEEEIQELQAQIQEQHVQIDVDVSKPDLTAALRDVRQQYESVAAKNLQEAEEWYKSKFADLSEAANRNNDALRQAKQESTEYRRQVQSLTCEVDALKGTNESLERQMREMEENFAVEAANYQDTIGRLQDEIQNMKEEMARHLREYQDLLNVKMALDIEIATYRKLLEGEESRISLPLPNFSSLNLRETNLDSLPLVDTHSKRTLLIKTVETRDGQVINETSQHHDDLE

T1 sequence (P08670 whole entry): as above
T3 sequence (A0A8C0N8E3 whole entry): as the sequence (P08670 whole entry) above, with A21G, S27T, V60A, N201S, E239D, E251D, V258M, T317N, S412A counted along it
Sequence of endogenous vimentin (human cell lines) (human (endogenous in HeLa, HEK293T, A549, MDA-MB-231)) (P08670 whole entry): as the sequence (P08670 whole entry) above
T2 sequence (P08670 96-407): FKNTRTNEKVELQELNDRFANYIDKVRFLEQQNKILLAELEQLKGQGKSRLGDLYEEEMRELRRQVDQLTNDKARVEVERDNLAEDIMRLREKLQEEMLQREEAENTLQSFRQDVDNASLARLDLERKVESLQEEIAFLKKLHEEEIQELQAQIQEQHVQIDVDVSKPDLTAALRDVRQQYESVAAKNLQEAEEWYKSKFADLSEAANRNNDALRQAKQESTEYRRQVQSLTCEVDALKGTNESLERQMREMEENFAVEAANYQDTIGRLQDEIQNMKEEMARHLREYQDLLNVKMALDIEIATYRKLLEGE

B1: VE3, phage-displayed clone (VHH)
VHH: QVQLVESGGGLVQPGGSLRLSCAASGSTFRIRTMGWYRQAPGKQRELVAVSTNSGGSVNYADSVKGRFTISIDSVKKTTDLQMNSLKPEDTAVYYCNAYDSDYLDYYGQGTQVTVSS
notes: derived from a heavy-chain-only antibody
- binding result (purified vimentin-His6): binds

B2: VH3, phage-displayed clone (VHH)
VHH: QVQLVESGGGLAQPGGSLRLSCAASGFTFSSYAMSWVRQAPGKGLEWVSGITSGGSSTYYASSVKGRFTISRDNTKNTLYLQMDNLKSDDTAVYYCAKAWGSASSSRGQGTQVTVSS
notes: VH domain derived from a conventional IgG by its hallmark residues
- binding result (purified vimentin-His6): binds

B3: VC4, phage-displayed clone (VHH)
VHH: QVQLVESGGGLVQPGGSLRLSCLASGFSFGSYRMHWVRQAPGKGLEWVSGISSGGGTTYYADSVKGRFTISRDNAKNMLYLQMNNLQPEDTAVYYCLGGDWADWGQGTQVTVSS
notes: as for B2
- binding result (purified vimentin-His6): binds

B4: VG4, phage-displayed clone (VHH)
VHH: QVQLVESGGGLVQPGGSLRLSCVASGFTFSDYWMYWVRQAPGKGLEWVSGISPGGTTTYADSVKGRFTTSRDNTRNTLYLQMNELKPEDTAVYYCAKDLNWVDSDDYWGRGTQVTVSS
notes: as for B2
- binding result (purified vimentin-His6): binds

B5: VB3 nanobody (VHH)
VHH: QVQLVESGGGSVQAGDSLRLSCAASGNTFSIKVMGWYRQAPGKQRELVAVSTNSGASVNYANSVKGRFTISIDSVKKTTYLQMNSLKPEDTAVYFCNAYDGRYEDYYGQGTQVTVSS
notes: By its hallmark residues derived from a heavy-chain-only antibody; Used immobilised on BLI sensors and covalently coupled to NHS-Sepharose; Construct and purification details are in the Supplementary methods; also called Nb VB3; source: E. coli, recombinantly expressed and purified
- binding result [1]: binds
- FRAP in HeLa cells: half time of fluorescence recovery of the chromobody [2]: 4.3 s
- FRAP in HeLa cells: total fluorescence recovery of the chromobody in the photobleached region [2]: 58.4%
- binding result [3]: binds

B6: VF6, phage-displayed clone (VHH)
VHH: DVQLVESGGGLVEAGGSLRLSCAASGRTFSPYVMGWYRQAPGNQRELVAVSTNSGASVNYANSVKGRFTISIDSVKKTTYLQMNSLKPEDTAVYFCNAYDGRYEDYYGQGTQVTVSS
notes: as for B1
- binding result (purified vimentin-His6): binds

B7: VG1, phage-displayed clone (VHH)
VHH: DVQLVESGGGLVQAGGSLKLSCKASGSTYSIHVYGWYRQAPGKQRELVAVSTNSGASVNYANSVKGRFTISIDSVKKTTYLQMNSLKPEDTAVYFCNAYDGRYEDYYGQGTQVTVSS
notes: as for B1
- binding result (purified vimentin-His6): binds

B8: VB6 nanobody coupled to ATTO488 (VHH)
VHH: QVQLVESGGGLVQSGGSLTLTCAASGFTFSAASMRWVRQVPGKGLEWVATIDGTGANSYYSESAKGRFTISRDNARNTLRLQMNNLKPDDTAVYYCANFGRNYWGKGTQVTVSS
notes: also called VB6_(ATTO488); source: E. coli, purified, chemically coupled to ATTO488 NHS-ester
- binding result [4]: binds

B9: VB6 nanobody (VHH)
VHH: QVQLVESGGGLVQSGGSLTLTCAASGFTFSAASMRWVRQVPGKGLEWVATIDGTGANSYYSESAKGRFTISRDNARNTLRLQMNNLKPDDTAVYYCANFGRNYWGKGTQVTVSS
notes: Single-domain antibody; Used immobilised on BLI sensors and covalently coupled to NHS-Sepharose; Construct details are in the Supplementary methods; also called Nb VB6; source: E. coli, recombinantly expressed and purified
- Kd (GFP-labeled vimentin): 37 nM
- koff (GFP-labeled vimentin): 0.0176 s⁻¹
- kon (GFP-labeled vimentin): 475000 M⁻¹ s⁻¹
